Experiment in all cases: cytokine release
Assay [1] addresses T1, KRAS G12D peptide on HLA-A*11:01 (human).
T1 peptide: VVVGADGVGK

Assay [2] deals with T2, KRAS G12V peptide on HLA-A*11:01 (human).
T2 peptide: VVVGAVGVGK

For assay [3], the target named is T3, KRAS wild type peptide on HLA-A*11:01 (human).
T3 peptide: VVVGAGGVGK

For assay [4], the target named is T4, KRAS wild type peptide on HLA-A*11:01 (human).
T4 peptide: VVGAGGVGK

In assay [5] the target is T5, KRAS G12D peptide on HLA-A*11:01 (human).
T5 peptide: VVVGADGVG

The target of assay [6] is T6, KRAS G12D peptide on HLA-A*11:01 (human).
T6 peptide: VVGADGVGK

In assay [7] the target is T7, KRAS G12V peptide on HLA-A*11:01 (human).
T7 peptide: VVGAVGVGK

B1: TRAV12N-3*01 + TRBV5*01 (TCR)
Valpha: GDSVTQTEGLVTLTEGLPVMLNCTYQTIYSNPFLFWYVQHLNESPRLLLKSFTDNKRTEHQGFHATLHKSSSSFHLQKSSAQLSDSALYYCALRGNAGAKLTFGGGTRLTVRP
beta TRBV5*01 2*01/2-1*01 CDR3: CASSQDSLGRAEQFF
B1: the binding result in assay [1], in assay [2] and in assay [3] was “no recognition” each time.

B2: TRAV12N-3*01/BV4*01 murine anti-KRAS G12D TCR (SEQ ID NOs: 11 and 12) (TCR, V domains shown)
Valpha: GDSVTQTEGLVTLTEGLPVMLNCTYQTIYSNPFLFWYVQHLNESPRLLLKSFTDNKRTEHQGFHATLHKSSSSFHLQKSSAQLSDSALYYCALRGNAGAKLTFGGGTRLTVRP
Vbeta: ETAVFQTPNYHVTQVGNEVSFNCKQTLGHDTMYWYKQDSKKLLKIMFSYNNKQLIVNETVPRRFSPQSSDKAHLNLRIKSVEPEDSAVYLCASSSRDWSAETLYFGSGTRLTVL
Regarding B2, the binding result in assay [4] was “no recognition”; in assay [5], “no recognition”; in assay [1], “recognises”; in assay [2], “no recognition”; in assay [3] it was “no recognition”; in assay [6] it was “no recognition”.

B3: TRAV4-4/DV10*01/BV12-2*01 murine anti-KRAS G12D TCR (SEQ ID NOs: 157 and 158) (TCR, V domains shown)
Valpha: GDQVEQSPSALSLHEGTDSALRCNFTTTMRSVQWFRQNSRGSLISLFYLASGTKENGRLKSAFDSKERRYSTLHIRDAQLEDSGTYFCAADSSNTGYQNFYFGKGTSLTVIP
Vbeta: NSGVVQSPRYIIKGKGERSILKCIPISGHLSVAWYQQTQGQELKFFIQHYDKMERDKGNLPSRFSVQQFDDYHSEMNMSALELEDSAVYFCASSLTDPLDSDYTFGSGTRLLVI
For the molecule B3, the binding result in assay [4], in assay [2], in assay [3] and in assay [6] was “no recognition” throughout.

B4: Substituted TRAV4-4/DV10*01/BV12-2*01 (CDR3alpha G112A) (SEQ ID NOs: 209 and 158) (TCR, V domains shown)
Valpha: GDQVEQSPSALSLHEGTDSALRCNFTTTMRSVQWFRQNSRGSLISLFYLASGTKENGRLKSAFDSKERRYSTLHIRDAQLEDSGTYFCAADSSNTAYQNFYFGKGTSLTVIP
Vbeta: NSGVVQSPRYIIKGKGERSILKCIPISGHLSVAWYQQTQGQELKFFIQHYDKMERDKGNLPSRFSVQQFDDYHSEMNMSALELEDSAVYFCASSLTDPLDSDYTFGSGTRLLVI
Take B4: the binding result in assay [1] is reported as “recognises”.

B5: TRAV16D/DV11*03 + TRBV4*01 (TCR)
alpha TRAV16D/DV11*03 52*01 CDR3: CAMREDTGANTGKLTF
Vbeta: ETAVFQTPNYHVTQVGNEVSFNCKQTLGHDTMYWYKQDSKKLLKIMFSYNNKQLIVNETVPRRFSPQSSDKAHLNLRIKSVEPEDSAVYLCASSSRDWSAETLYFGSGTRLTVL
Consider B5, for which the binding result in assay [2] and in assay [3] was “no recognition” each time.

B6: TRAV16D/DV11*03 + TRBV5*01 (TCR)
alpha TRAV16D/DV11*03 52*01 CDR3: CAMREDTGANTGKLTF
beta TRBV5*01 2*01/2-1*01 CDR3: CASSQDSLGRAEQFF
Turning to B6, the binding result in assay [2] and in assay [3] was “no recognition” in each case.

B7: TRAV3-3*01/TRBV4*01 murine anti-KRAS G12V TCR (SEQ ID NOs: 133 and 134) (TCR, V domains shown)
Valpha: GEQVEQRPPHLSVREGDSAVITCTYTDPNSYYFFWYKQEPGASLQLLMKVFSSTEINEGQGFTVLLNKKDKRLSLNLTAAHPGDSAAYFCAVSGGTNSAGNKLTFGIGTRVLVRP
Vbeta: ETAVFQTPNYHVTQVGNEVSFNCKQTLGHDTMYWYKQDSKKLLKIMFSYNNKQLIVNETVPRRFSPQSSDKAHLNLRIKSVEPEDSAVYLCASSRDWGPAEQFFGPGTRLTVL
Take B7: the binding result in assay [1] is “no recognition”; in assay [2], “recognises”; in assay [3], “no recognition”; in assay [6] it was “no recognition”.

B8: TRAV19*01/TRBV13-1*02 murine anti-KRAS G12V TCR (SEQ ID NOs: 145 and 146) (TCR, V domains shown)
Valpha: GQQVKQSSPSLTVQEGGILILNCDYENDMFDYFAWYKKYPDNSPTLLISVRSNVDKREDGRFTVFLNKSGKHFSLHITASQPEDTAVYLCAAGDSGGSNYKLTFGKGTLLTVTP
Vbeta: EAAVTQSPRNKVTVTGGNVTLSCRQTNSHNYMYWYRQDTGHGLRLIHYSYGAGNLQIGDVPDGYKATRTTQEDFFLLLELASPSQTSLYFCASASWGGYAEQFFGPGTRLTVL
Turning to B8, the binding result is reported as “no recognition” in assay [7]; “no recognition” in assay [1]; “recognises” in assay [2]; “no recognition” in assay [3]; “no recognition” in assay [6].

B9: TRAV3-3*01 + TRBV13-1*02 (TCR, V domains shown)
Valpha: GEQVEQRPPHLSVREGDSAVITCTYTDPNSYYFFWYKQEPGASLQLLMKVFSSTEINEGQGFTVLLNKKDKRLSLNLTAAHPGDSAAYFCAVSGGTNSAGNKLTFGIGTRVLVRP
Vbeta: EAAVTQSPRNKVTVTGGNVTLSCRQTNSHNYMYWYRQDTGHGLRLIHYSYGAGNLQIGDVPDGYKATRTTQEDFFLLLELASPSQTSLYFCASASWGGYAEQFFGPGTRLTVL
In the case of B9, the binding result in assay [1], in assay [2] and in assay [3] was “no recognition” throughout.

B10: TRAV19*01 + TRBV4*01 (TCR, V domains shown)
Valpha: GQQVKQSSPSLTVQEGGILILNCDYENDMFDYFAWYKKYPDNSPTLLISVRSNVDKREDGRFTVFLNKSGKHFSLHITASQPEDTAVYLCAAGDSGGSNYKLTFGKGTLLTVTP
Vbeta: ETAVFQTPNYHVTQVGNEVSFNCKQTLGHDTMYWYKQDSKKLLKIMFSYNNKQLIVNETVPRRFSPQSSDKAHLNLRIKSVEPEDSAVYLCASSRDWGPAEQFFGPGTRLTVL
Turning to B10, the binding result in assay [1], in assay [2] and in assay [3] was “no recognition” throughout.

(Values after patent US20250263462A1 (published 2025).)
